Columns and labels:
[1] = biological target: T1, recombinant human DLL4 extracellular domain, C-terminally His-tagged (R&D Systems) (human, UniProt Q9NR61 25-522, biotinylated in the competition assays (sites not given)); assay: periplasmic extract; hDLL4 ELISA
T1 construct: also called rhDLL4; hDLL4; not shown: C-terminal His tag

[2] = biological target: T1, recombinant human DLL4 extracellular …; assay: periplasmic extract; hDLL4/hNotch1 AlphaScreen
Procedure: To this mixture, the acceptor beads and the streptavidin donor beads are added and further incubated for 1 hour at room temperature. Fluorescence is measured by reading plates on the Envision Multilabel Plate reader (Perkin Elmer, Waltham, Mass., USA) using an excitation wavelength of 680 nm and an emission wavelength of 520 nm.

human Jagged-1 = biological target: T2, human Jagged-1 (human, UniProt P78504 34-1067, limits assumed); assay: binding ELISA, coated hJagged-1
T2 construct: also called hJag-1; hJAG1
Procedure: (§1) Absence of binding to homologous ligands human DLL1 and human Jagged-1 is assessed via solid phase binding assay (ELISA). In brief, human DLL1 (Alexis, San Diego, Calif., USA) and human Jagged-1 (Alexis, San Diego, Calif., USA) are coated overnight at 4° C. at 1 μg/mL in a 96-well MaxiSorp plate (Nunc, Wiesbaden, Germany). Wells are blocked with a casein solution (1% in PBS). VHHs are applied as dilution series and binding is detected using a mouse anti-myc (Roche) and an anti-mouse-AP conjugate (Sigma, St. Louis, Mo., USA).

human DLL1 = biological target: T3, human DLL1 (human, UniProt O00548 18-545, limits assumed); assay: binding ELISA, coated hDLL1
T3 construct: also called hDLL1; rhDLL1
T3 sequence (looked up): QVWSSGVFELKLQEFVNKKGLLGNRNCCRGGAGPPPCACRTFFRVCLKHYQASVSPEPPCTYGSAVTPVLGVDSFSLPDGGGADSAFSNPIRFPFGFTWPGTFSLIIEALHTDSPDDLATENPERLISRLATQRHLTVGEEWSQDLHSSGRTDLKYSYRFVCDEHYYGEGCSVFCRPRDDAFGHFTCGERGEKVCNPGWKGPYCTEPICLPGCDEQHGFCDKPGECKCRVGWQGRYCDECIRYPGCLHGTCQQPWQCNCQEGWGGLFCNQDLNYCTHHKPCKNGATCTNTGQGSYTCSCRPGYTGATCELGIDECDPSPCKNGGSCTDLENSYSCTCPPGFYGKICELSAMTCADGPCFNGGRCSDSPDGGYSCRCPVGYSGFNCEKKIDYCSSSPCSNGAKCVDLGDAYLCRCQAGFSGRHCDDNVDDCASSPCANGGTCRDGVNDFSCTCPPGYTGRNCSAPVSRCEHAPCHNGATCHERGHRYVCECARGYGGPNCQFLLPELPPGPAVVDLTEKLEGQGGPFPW
Procedure: as §1

recombinant mouse DLL4 = biological target: T4, recombinant mouse DLL4 (mouse, UniProt Q9JI71 27-532); assay: ProteOn off-rate screen, periplasmic extract, mDLL4 on chip
T4 construct: extracellular domain; also called rmDLL4; mDLL4; not shown: C-terminal His tag
T4 sequence (Q9JI71 27-532): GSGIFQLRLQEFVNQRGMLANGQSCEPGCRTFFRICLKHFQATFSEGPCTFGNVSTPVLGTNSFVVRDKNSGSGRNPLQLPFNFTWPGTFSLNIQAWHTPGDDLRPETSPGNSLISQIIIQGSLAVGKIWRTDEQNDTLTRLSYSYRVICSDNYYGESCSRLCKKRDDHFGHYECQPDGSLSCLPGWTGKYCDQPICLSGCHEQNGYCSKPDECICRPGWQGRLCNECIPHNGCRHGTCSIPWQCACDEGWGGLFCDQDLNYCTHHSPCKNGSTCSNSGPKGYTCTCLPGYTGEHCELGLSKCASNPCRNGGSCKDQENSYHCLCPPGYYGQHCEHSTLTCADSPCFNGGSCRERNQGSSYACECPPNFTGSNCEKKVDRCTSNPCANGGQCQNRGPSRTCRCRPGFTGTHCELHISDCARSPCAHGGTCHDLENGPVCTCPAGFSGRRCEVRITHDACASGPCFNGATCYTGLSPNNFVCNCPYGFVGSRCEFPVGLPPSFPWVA
Procedure: (§2) In a first cycle, amino acid substitutions are introduced randomly in both framework (FW) and complementary determining regions (CDR) using the error-prone PCR method. […] After a polish step, PCR products are inserted via unique restriction sites into a vector designed to facilitate phage display of the VHH library. […] No selections on murine DLL4 are included as (conservation of) cross-reactivity is assessed at the screening level. Individual mutants are produced as recombinant protein using an expression vector derived from pUC119, which contains the LacZ promoter, a resistance gene for ampicillin, a multiple cloning site and an ompA leader sequence (pAX50). E. coli TG1 cells are transformed with the expression vector library and plated on agar plates (LB+Amp+2% glucose). Single colonies are picked from the agar plates and grown in 1 mL 96-deep-well plates. VHH expression is induced by adding IPTG (1 mM). Periplasmic extracts (in a volume of ˜80 uL) are prepared according to standard methods and screened for binding to recombinant human and mouse DII4 in a ProteOn (BioRad, Hercules, Calif., USA) off-rate assay. […] Periplasmic extract of affinity matured clones is diluted 1/10 and injected across the “analyte channels” A1-A6. An average off-rate is calculated of the wild type clones present in the plate and served as a reference to calculate off-rate improvements.

recombinant human DLL4 = biological target: T5, recombinant human DLL4 (human, UniProt Q9NR61 25-522); assay: ProteOn off-rate screen, periplasmic extract, hDLL4 on chip
T5 construct: R&D Systems C-terminally His-tagged extracellular domain; also called rhDLL4; hDLL4; not shown: C-terminal His tag
T5 sequence (Q9NR61 25-522): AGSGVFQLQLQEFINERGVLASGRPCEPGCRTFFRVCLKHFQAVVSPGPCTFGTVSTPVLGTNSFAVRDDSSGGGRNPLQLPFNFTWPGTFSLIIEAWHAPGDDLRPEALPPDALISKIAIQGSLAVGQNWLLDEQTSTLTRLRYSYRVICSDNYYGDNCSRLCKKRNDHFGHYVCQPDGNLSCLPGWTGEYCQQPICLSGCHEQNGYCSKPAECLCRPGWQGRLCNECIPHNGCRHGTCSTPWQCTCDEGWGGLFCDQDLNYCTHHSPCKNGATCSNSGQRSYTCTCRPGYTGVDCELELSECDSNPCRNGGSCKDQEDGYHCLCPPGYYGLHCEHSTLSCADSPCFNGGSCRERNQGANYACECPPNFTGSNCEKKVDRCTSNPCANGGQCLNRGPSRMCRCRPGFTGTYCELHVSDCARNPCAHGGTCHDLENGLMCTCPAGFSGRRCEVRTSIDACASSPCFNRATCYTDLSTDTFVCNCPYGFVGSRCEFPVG
Procedure: as §2

T1 sequence (Q9NR61 25-522): as above

| Binder | % inhibition [1] | fold (off-rate improvement over DLLBII101G08) (recombinant mouse DLL4) | fold (off-rate improvement over DLLBII101G08) (recombinant human DLL4) | further results |
| --- | --- | --- | --- | --- |
| DLLBII8C11 (VHH, also called DLLBII08C11; not shown: C-terminal c-myc and His6 tags) VHH: EVQLVESGGGLVQAGGSLRLSCAASGFTFDDYAIGWFRQAPGKEREGVSCISSHDRTTYYADSVKGRFTISSDNAKNTVYLQMNSLKPEDTAVYYCAADPLVCGYNDPRLADYWGQGTQVTVSS | 57% |  |  |  |
| DLLBII17B03 (VHH, also called DLLBII17B3; not shown: C-terminal c-myc and His6 tags) VHH: EVQLVESGGGLVQPGGSLRLSCAASGFTFENYALGWFRQAPGKEREWVSCISSSDGTTYYADSVKGRFTISRDNVKNTVYLQMNRLKPEDTAIYYCALSLGSSWCAYDYWGQGTQVTVSS | 76% |  |  | % inhibition [2]: 77% |
| DLLBII28B06 (VHH, also called DLLBII28B6; not shown: C-terminal c-myc and His6 tags) VHH: EVQLVESGGGLVQAGGSLRLSCAASGSTFSTYAMGWYRQDPGNQRELVAAISSDGSTHYADSVKGRFTISRDNAKNTVYLQMNSLKPEDTAVYYCYAPVKVAGLEYDYWGQGTQVTVSS | 23% |  |  | % inhibition [2]: 54% |
| DLLBII19F12 (VHH, not shown: C-terminal c-myc and His6 tags) VHH: EVQLVESGGGLVQAGGSLRLSCTASGSTFTSYAMGWYRQAPGKQRELVAAISSDDSTYYADCVKGRFTISRDNAKNTVYLQMNSLKPEDTAVYYCNAPHSDYDEEAPSDFGSWGQGTQVTVSS | 98% |  |  | % inhibition [2]: 98% |
| DLLBII19F04 (VHH, also called DLLBII19F4; not shown: C-terminal c-myc and His6 tags) VHH: EVQLVESGGGLVQAEGSLRLSCAASGSTFSTYAMAWYRQAPGKQRELVAGISFDGSTHYAESVKGRFTISRDDAKNTVSLQMNSLKPEDAAVYYCYSVHPSTGFGSWGQGTQVTVSS | 98% |  |  | % inhibition [2]: 95% |
| DLLBII5B11 (VHH, also called DLLBII05B11; not shown: C-terminal c-myc and His6 tags) VHH: EVQLVESGGGLVQPGGSLRLSCAISGFTLDLHVIGWLRQAPGKEREWVSCISSSDGSTYYADSVKGRFTISRDNAKNTVYLQMNSLKPEDTAVYYCAAPWDSWYCGIGNDYDYWGQGTQVTVSS | 98% |  |  |  |
| DLLBII7B05 (VHH, also called DLLBII7B5; DLLBII07B05; not shown: C-terminal c-myc and His6 tags) VHH: EVQLVESGGGLVQAGGSLRLSCAASGFALDYYAVGWFRQAPGKEREGVSCISSRGGSTFYADSVKGRFTTSRNNAKNTVYLQMNSLKPEDTAVYYCAAHPLQNCCGGSAYASPEAVYEYWGQGTQVTVSS | 84% |  |  |  |
| DLLBII015 (VHH, not shown: C-terminal c-myc tag and (His)6 tag) VHH: EVQLVESGGGLVQPGGSLRLSCAASGFTIGSYDMSWVRRSPGKGPEWVSAINSGGGSTYYADYVKGRFTISRDNAKNTLYLQMNSLKPEDTAVYYCAADRYIWARQGEYWGAYAYDYWGQGTQVTVSS |  |  |  | binding result (human Jagged-1): no binding; binding result (human DLL1): no binding |
| DLLBII133G05 (VHH, not shown: C-terminal c-myc tag and (His)6 tag) VHH: EVQLVESGGGLVQPGGSLRLSCAASGFTFGSYDMSWVRRSPGKGPEWVSAINSGGGSTYYTDYVKGRFTISRDNAKNTLYLQMNSLKPEDTAVYYCAADRYIWARQGEYWGAYAYDYWGQGTQVTVSS |  |  |  | binding result (human Jagged-1): no binding; binding result (human DLL1): no binding |
| DLLBII136C07 (VHH, not shown: C-terminal c-myc tag and (His)6 tag) VHH: EVQLVESGGGLVQPGGSLRLSCAASGFTFGSYDMSWVRRSPGKGPEWVSSINSGGGSTYYADYVKGRFTISRDNAKNTLYLQMNSLKPEDTAVYYCAADRYIWARQGEYWGAYEYDYWGQGTQVTVSS |  |  |  | binding result (human Jagged-1): no binding; binding result (human DLL1): no binding |
| DLLBII33C05 (VHH, also called DLLBII33C5; not shown: C-terminal c-myc and His6 tags) VHH: EVQLVESGGGLVQAGGSLRLSCAASGFTLDNYVIGWFRQAPGKEREEVSCISSSGGSTDYLDSVKGRFTISRDNAKNTVYLQMNSLKPEDTAVYYCAADSLPCYYDKMVYDYWGQGTQVTVSS | 86% |  |  | % inhibition [2]: 75% |
| DLLBII6B11 (VHH, also called DLLBII06B11; not shown: C-terminal c-myc and His6 tags) VHH: EVQLVESEGGLVQAGGSLRLSCAASGSTFSSYAMGWYRQAPGKQRELVAVISNGGITNYPNSVKGRFTISRDNAKNTVYLQMNSLKPEDTAVYYCFYSGSYYYPTDVHEYDYWGQGTQVTVSS | 98% |  |  |  |
| DLLBII8A09 (VHH, also called DLLBII08A09; not shown: C-terminal c-myc and His6 tags) VHH: EVQLVESGGGLVQPGGSLRLSCAASGFTLDYYNIGWFRQAPGKEREWVSCINSSDGSTYYADSVKGRFTISRDNAKNTVYLQMNSLKPEDTAVYYCAAPFAYYSNLCGVNGYDYWGQGTQVTVSS | 96% |  |  |  |

Now from value to binder, other results behind:

| % inhibition [1] | fold (off-rate improvement over DLLBII101G08) (recombinant mouse DLL4) | fold (off-rate improvement over DLLBII101G08) (recombinant human DLL4) | Binder | further results |
| --- | --- | --- | --- | --- |
|  | 27 fold | 30 fold | DLLBII129H07 (VHH, not shown: C-terminal c-myc tag and (His)6 tag) VHH: EVQLVESGGGLVQAGGSLRLSCAASGRTFSSYAMAWYRQAPGKEREYVAAIRWSGGTAYYADSVQGRFTISRDNAKNTVYLQMNSLKPEDTAVYYCANRAPDTRLEPYEYDYWGQGTQVTVSS |  |
|  | 20 fold | 27 fold | DLLBII130B03 (VHH, not shown: C-terminal c-myc tag and (His)6 tag) VHH: EVQLVESGGGLVQAGGSLRLSCAASGRTFSSYAMAWYRQAPGKEREYVAAIRWSGGTAYYADSVQGRFTISRDNAKNTVYLQMNSLKPEDTAVYYCANRAPDTRLAPYLYDYWGQGTQVTVSS |  |
|  | 16 fold | 26 fold | DLLBII130D06 (VHH) VHH: EVQLVESGGGLVQAGGSLRLSCSASGRTFSSYAMAWYRQAPGKEREYVAAIRWSGETAYYADSVQGRFTISRDNAKNTVYLQMNSLKPEDTAVYYCANRAPDTRLEPYLYDHWGQGTQVTVSS |  |
|  | 17 fold | 24 fold | DLLBII130A05 (VHH) VHH: EVQLVESGGGLVQAGGSLRLSCAASGRTFSSYAMAWYRQAPGKEREYVAAIRWSGGTAYYADSVQGRFTISRDNAKNTVYLQMNSLKPEDTAVYYCANRAPDTRLGPYLYDHWGQGTQVTVSS |  |
|  | 18 fold | 24 fold | DLLBII130E03 (VHH) VHH: EVQLVESGGGLVQAGGSLRLSCAASGRTFSSYAMAWYRQAPGKEREYVAAIRWSGGTAYYADSVQGRFTISRDNAKNTVYLQMNSLKPEDTAVYYCANRAPDTRLEPYEYDHWGQGTQVTVSS |  |
|  | 17 fold | 22 fold | DLLBII130B04 (VHH) VHH: EVQLVESGGGLVQAGGSLRLSCAASGRTFSSYAMAWFRQAPGKEREYVAAIRWSGGTAYYADSVQGRFTISRDNAKNTVYLQMNSLKPEDTAVYYCANRAPDTRLRPYLYDHWGQGTQVTVSS |  |
|  | 17 fold | 23 fold | DLLBII130B02 (VHH) VHH: EVQLVESGGGLVQAGGSLRLSCAASGRTFSSYAMAWFRQAPGKEREYVAAIRWSGGTAYYADSVQGRFTISRDNAKNTVYLQMYSLKPEDTAVYYCANRAPDTRLAPYLYDHWGQGTQVTVSS |  |
|  | 19 fold | 27 fold | DLLBII130F06 (VHH, not shown: C-terminal c-myc tag and (His)6 tag) VHH: EVQLVESGGGLVQAGGSLRLSCAASGRTFSSYAMAWYRQAPGKEREYVAAIRWSGGTAYYADSVQGRFTISRDNAKNTVYLQMNSLKPEDTAVYYCANRAPDTRLAPYEYDYWGQGTQVTVSS |  |

From US20130078247A1 (Boehringer Ingelheim, published 2013)
